Laboratory results taken from patent US20160319032A1 (MEDLMMUNE, published 2016).
Positions count from the first letter of the chain named.

B1: sc 254 (antibody, V domains shown)
VH: QVQLQESGPGLVKPSQTLSLTCTVSGGSISSGGYYWSWIRQHPGKGLEWIGYIYYSGSTYYNPSLKSRVTISVDTSKNQFSLKLSSVTAADTAMYYCARYRGPAAGRGDFYYFGMDVWGQGTTVTVSS
VL: DIVMTQTPLSLSVTPGQPASIFCKSSQSLLNSDGKTYLCWYLQKPGQPPQLLIYEVSNRFSGVPDRFSGSGSGTDFTLKISRVEAEDVGVYYCMQGIQLPWAFFGQGTKVEIK
notes: kappa light chain
B2: sc 161 (antibody, V domains shown)
VH: EVQLVQSGAEVKKPGESLKISCKGSGYSFTSYWIGWVRQMPGKGLEWMGIIYPGDSDTRYSPSFQGQVTISADKSISTAYLQWSSLKASDTAMYYCARHGIAAAGFYYYYMDVWGQGTTVTVSS
VL: EIVLTQSPDTLSLSPGERASLSCRASQNVNRNYLVWYQQKPGQAPRLLIYGTSNRATGIPDRFSGSGSGTDFTLTISRLEPEDFAVYYCQQCGSLPFTFGPGTKVDIKR
notes: kappa light chain
B3: sc 58 (antibody, V domains shown)
VH: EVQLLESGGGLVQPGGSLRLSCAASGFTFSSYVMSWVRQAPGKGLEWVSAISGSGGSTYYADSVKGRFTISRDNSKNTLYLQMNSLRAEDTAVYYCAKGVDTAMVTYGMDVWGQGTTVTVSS
VL: SYELTQPPSVSVSPGQTARITCSGDALPKKYAYWYQQKSGQAPVLVIYDDSKRPSGIPERFSGSSSGTMATLTISGAQVEDEADYYCYSTDSSGNHRVFGGGTKLTVL
notes: lambda light chain; also called sc 058
B4: sc 277 (antibody, V domains shown)
VH: EVQLVQSGAEVKKPGESLKISCKGSGYSFPSYWIGWVRQMPGKGLEWMGIIYPGDSDTRYSPSFQGQVTISADKSISTAYLQWSSLKASDTAMYYCARHPMEDGMDVWGQGTTVTVSS
VL: SYELTQPPSVSVSPGQTARITCSGDALPKKYAFWYQQKSGQAPVLVIYDDNKRPSGIPERFSGSSSGTMATLTITGAQVEDEADYYCYSTDSSGHHVFGGGTKLTVL
notes: lambda light chain
B5: sc 188 (antibody, V domains shown)
VH: QVQLQESGPGLVKPSQTLSLTCTVSGGSISSGVYYWTWIRQHPGNGLEWIGYIYYSGSTSYNPSLKSRVTISVDTSKKQFSLNLTSVTAADTAVYYCAREGPLRGDYYYGLDVWGQGTTVTVSS
VL: EIVLTQSPGTLSLSPGERATLSCRAGQTISSRYLAWYQQKPGQAPRPLIYGASSRATGIPDRFSGSGSGTDFTLTISRLEPEDFAVYYCQQYGSSPRTFGQGTKVEIK
notes: kappa light chain
B6: sc 133 (antibody, V domains shown)
VH: QVQLVQSGAEVKKPGASVKVSCKASGYTFTGYYMHWVRQAPGQGLEWMGWINPKSGDTNYAQKFQGRVTLTRDTSTSTAYMELSRLRSDDTAVYYCARRLDVWGQGTTVTVSS
VL: QSVLTQPPSVSAAPGQKVTISCSGSSSNIGNNYVSWYQQLPGTAPKLLIYDNNKRPSGIPDRFSGSKSGTSATLGITGLQTGDEADYYCGTWNSSLSAGYVFGTGTKVTV
notes: lambda light chain; also called mAb sc 133
B7: sc 320 (antibody, V domains shown)
VH: EVQLVESGGGLVKPGGSLRLSCAASGYTFTNYIMHWVRQAPGKGLEWVSSISISSSYIYYADSVKGRFTISRDNAKNSLYLQMNSLRAEDTAVYYCARDPVPLERRDYYYGMDVWGQGTTVTVSS
VL: QSVLTQPPSMSAAPGQKVTISCSGSSSNIGNNYVSWYQQLPGTAPKLLIYDNNKRPSGIPDRFSGSKSGTSATLGITGLQTGDEADYYCGTWDSSLSAGVFGGGTKLTVL
notes: lambda light chain
B8: sc 97 (antibody, V domains shown)
VH: EVQLVQSGAEVKKPGESLKISCKGSGYSFTSYWIGWVRQMPGKGLEWMGIIYPGDSDTRYSPSFQGQVILSADKSISTAYLQWSSLKASDTAMYYCARHDESSGYYYVFDIWGQGTMVTVSS
VL: SYELTQPPSVSVSPGQTARITCSGDALPKKYAYWYQQKSGQAPVLVIYEDIKRPSGIPERFSGSSSGTMATLTISGAQVEDEADYYCYSTDSSGNHWVFFGGGTKLTVL
notes: lambda light chain; also called sc 097
B9: sc 264 RAD (antibody, V domains shown)
VH: QVQLQESGPGLVKPSQTLSLTCTVSGGSISSGGYYWSWIRQHPGKGLEWIGYIYYSGRTYNNPSLKSRVTISVDTSKNQFSLKLSSVTAADTAVYYCARVATGRADYHFYAMDVWGQGTTVTVSS
VL: SYELTQPSSVSVSPGQTARITCSGDVLAKKSARWFHQKPGQAPVLVIYKDSERPSGIPERFSGSSSGTTVTLTISGAQVEDEAAYYCYSAADNNLVFGGGTKLTVL
B10: sc 188 SDM (antibody, V domains shown)
VH: B5 VH with N83K
VL: B5 VL
B11: sc 49 (antibody, V domains shown)
VH: QVQLQESGPGLVKPSQTLSLTCTVAGGSIRSGDYYWSWIRQHPGKGLEWIGNIYYSGSTYYNPSLKSRITISVATSRNQFSLKLTSVTAADTAVYYCARGGAITIFGVFDYWGQGTLVTVSS
VL: not shown
notes: kappa light chain; also called sc 049

biological target: T1, human αVβ6 integrin on cells (human, UniProt P06756 31-1048; P18564 22-788); test: cell-based or functional assay
T1 sequence (P06756 31-1048, chain 1 of 2): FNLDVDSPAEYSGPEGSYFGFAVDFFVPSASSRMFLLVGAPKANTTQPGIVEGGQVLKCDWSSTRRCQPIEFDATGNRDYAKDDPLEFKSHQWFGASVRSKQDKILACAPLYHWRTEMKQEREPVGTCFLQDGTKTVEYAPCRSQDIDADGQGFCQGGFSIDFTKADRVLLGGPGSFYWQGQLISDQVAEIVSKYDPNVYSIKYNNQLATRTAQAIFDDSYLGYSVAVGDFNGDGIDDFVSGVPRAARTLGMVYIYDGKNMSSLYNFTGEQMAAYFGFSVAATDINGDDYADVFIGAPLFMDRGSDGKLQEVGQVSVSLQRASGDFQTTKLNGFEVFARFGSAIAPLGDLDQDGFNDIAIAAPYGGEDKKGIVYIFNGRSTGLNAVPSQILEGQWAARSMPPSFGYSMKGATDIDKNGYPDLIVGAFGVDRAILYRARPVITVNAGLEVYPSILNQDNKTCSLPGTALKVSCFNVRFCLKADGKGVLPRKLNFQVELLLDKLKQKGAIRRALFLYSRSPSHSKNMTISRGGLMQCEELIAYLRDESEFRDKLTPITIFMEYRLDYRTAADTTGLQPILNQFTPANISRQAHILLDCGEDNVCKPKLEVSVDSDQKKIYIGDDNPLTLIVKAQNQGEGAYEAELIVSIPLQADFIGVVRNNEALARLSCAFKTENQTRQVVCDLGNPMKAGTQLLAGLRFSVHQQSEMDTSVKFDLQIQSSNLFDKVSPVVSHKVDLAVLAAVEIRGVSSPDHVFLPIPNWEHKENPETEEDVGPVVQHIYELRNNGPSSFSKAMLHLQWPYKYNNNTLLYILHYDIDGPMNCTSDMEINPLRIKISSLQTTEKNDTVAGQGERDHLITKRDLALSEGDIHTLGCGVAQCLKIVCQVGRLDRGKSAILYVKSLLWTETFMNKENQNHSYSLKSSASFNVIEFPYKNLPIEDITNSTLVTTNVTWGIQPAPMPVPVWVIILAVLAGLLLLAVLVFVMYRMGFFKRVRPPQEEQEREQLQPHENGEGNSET
T1 sequence (P18564 22-788, chain 2 of 2): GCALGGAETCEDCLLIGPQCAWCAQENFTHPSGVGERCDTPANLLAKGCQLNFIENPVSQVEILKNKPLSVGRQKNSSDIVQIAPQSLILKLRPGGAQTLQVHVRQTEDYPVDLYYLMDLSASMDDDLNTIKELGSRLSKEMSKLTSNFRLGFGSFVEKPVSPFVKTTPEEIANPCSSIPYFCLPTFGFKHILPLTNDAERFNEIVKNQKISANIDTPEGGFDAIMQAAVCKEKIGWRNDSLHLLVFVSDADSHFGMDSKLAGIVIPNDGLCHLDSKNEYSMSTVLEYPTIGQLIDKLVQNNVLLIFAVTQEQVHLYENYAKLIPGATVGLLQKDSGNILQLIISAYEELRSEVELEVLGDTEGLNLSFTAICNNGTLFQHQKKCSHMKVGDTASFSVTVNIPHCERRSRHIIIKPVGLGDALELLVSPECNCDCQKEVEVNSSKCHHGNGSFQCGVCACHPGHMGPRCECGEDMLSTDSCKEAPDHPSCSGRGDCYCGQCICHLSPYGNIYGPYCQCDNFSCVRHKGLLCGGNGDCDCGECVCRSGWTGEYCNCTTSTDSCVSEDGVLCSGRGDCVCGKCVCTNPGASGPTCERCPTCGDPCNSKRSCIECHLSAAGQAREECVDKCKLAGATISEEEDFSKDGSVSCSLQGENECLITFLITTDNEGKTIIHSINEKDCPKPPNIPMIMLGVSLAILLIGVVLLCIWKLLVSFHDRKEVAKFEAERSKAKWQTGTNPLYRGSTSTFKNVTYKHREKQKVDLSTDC

In order of falling “Assay 1 % Inhibition of adhesion” value:
1. B5  99%
2. B1  98%
3. B2  98%
4. B4  98%
5. B3  77%

In order of rising “Assay 2 % Inhibition of adhesion” value:
1. B3  46%
2. B4  101%
3. B5  103%
4. B1  106%
5. B2  106%

In order of rising “Average % Inhibition of adhesion” value:
1. B3  62%
2. B4  100%
3. B5  101%
4. B1  102%
5. B2  102%

biological target: T1, human αVβ6 integrin on cells; test: cell-based or functional assay; remark: another data set of the same source

In order of falling “Estimated IC50, adhesion assay, n = 1” value:
1. B3  4.07 µg/mL
2. B2  2.41 µg/mL
3. B4  1.46 µg/mL
4. B1  0.063 µg/mL
5. B5  0.041 µg/mL

In order of rising “Estimated IC50, adhesion assay, n = 2” value:
1. B5  0.026 µg/mL
2. B1  0.037 µg/mL
3. B2  0.137 µg/mL
4. B4  0.54 µg/mL
5. B3  2.03 µg/mL

In order of falling “Estimated IC50, adhesion assay, n = 3” value:
1. B3  3.26 µg/mL
2. B4  0.72 µg/mL
3. B1  0.037 µg/mL

biological target: human αV on parental A375M cells (αVβ3 and αVβ5 integrins) (human, UniProt P06756 31-1048); test: cell-based or functional assay
Sequence (P06756 31-1048 A375M, form in doubt): as the sequence (P06756 31-1048, chain 1 of 2) above, with A345M counted along it

For B6, the “Percent Inhibition of A375M adhesion to osteopontin peptide, 5 ug/ml” value was 3%.

biological target: T2, α4β1 integrin on J6.77 cells (UniProt P13612 34-1032; P05556 21-798); test: cell-based or functional assay

In order of falling “Percent Inhibition of J6.77 adhesion to CS-1 peptide, 5 ug/ml” value:
1. B2  12%
2. B1  0%
3. B8  -7%
4. B7  -8%
5. B5  -10%
6. B3  -14%
7. B6  -15%
8. B4  -17%

biological target: T3, α5β1 integrin on K562 cells (UniProt P08648 42-1049; P05556 21-798); test: cell-based or functional assay
T3 sequence (P08648 42-1049, chain 1 of 2): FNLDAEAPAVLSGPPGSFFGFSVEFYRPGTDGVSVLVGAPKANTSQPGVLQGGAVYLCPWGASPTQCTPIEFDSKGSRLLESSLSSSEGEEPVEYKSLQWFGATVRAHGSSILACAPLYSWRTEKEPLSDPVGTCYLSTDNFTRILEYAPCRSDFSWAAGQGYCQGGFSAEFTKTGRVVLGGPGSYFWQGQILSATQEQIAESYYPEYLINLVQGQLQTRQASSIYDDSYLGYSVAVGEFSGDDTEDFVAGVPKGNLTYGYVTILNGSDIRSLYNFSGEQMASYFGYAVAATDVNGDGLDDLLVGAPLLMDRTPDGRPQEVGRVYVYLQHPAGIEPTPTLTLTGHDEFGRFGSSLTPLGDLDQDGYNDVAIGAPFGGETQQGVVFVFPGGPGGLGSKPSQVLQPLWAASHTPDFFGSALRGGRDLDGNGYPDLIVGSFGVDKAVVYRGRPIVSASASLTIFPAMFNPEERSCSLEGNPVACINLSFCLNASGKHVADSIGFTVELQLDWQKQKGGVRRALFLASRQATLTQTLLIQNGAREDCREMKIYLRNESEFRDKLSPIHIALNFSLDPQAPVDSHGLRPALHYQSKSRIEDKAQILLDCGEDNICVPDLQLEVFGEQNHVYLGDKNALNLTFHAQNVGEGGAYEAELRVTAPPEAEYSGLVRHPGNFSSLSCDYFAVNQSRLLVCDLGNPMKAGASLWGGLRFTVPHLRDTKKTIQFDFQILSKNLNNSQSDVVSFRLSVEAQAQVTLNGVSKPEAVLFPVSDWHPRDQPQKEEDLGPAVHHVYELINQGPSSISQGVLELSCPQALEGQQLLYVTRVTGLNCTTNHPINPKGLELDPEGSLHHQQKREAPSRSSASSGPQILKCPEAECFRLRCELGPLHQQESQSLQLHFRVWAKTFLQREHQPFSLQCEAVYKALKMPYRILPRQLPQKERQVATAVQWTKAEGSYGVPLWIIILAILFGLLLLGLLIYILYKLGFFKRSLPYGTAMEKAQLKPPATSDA
T3 sequence (P05556 21-798, chain 2 of 2): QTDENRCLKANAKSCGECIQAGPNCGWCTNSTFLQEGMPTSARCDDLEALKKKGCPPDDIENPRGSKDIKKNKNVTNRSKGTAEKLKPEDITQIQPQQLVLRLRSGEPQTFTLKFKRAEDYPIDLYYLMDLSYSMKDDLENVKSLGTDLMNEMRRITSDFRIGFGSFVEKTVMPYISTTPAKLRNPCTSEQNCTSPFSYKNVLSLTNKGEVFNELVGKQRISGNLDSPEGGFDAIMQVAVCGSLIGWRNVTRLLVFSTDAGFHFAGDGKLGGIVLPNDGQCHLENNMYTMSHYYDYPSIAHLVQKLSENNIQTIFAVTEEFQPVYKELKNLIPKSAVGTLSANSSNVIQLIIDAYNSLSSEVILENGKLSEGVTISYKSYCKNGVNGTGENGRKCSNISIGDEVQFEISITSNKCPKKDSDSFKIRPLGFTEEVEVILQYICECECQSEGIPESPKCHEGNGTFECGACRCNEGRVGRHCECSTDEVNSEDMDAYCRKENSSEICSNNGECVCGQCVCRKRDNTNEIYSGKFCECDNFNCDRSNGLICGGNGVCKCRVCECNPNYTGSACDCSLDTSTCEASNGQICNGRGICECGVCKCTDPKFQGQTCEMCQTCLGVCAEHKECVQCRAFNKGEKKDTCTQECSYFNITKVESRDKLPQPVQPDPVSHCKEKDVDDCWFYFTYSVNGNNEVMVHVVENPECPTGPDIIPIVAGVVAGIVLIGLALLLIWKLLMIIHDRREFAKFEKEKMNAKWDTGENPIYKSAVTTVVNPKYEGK

In order of falling “Percent Inhibition of K562 adhesion to FN9-10, 5 ug/ml” value:
1. B5  5%
2. B1  -9%
3. B6  -12%

biological target: T1, human αVβ6 integrin on cells; test: cell-based or functional assay; remark: another data set of the same source

In order of rising “Percent Internalization, 1 ug/mL” value:
1. B5  34%
2. B1  39%

In order of rising “Percent Internalization, 10 ug/mL” value:
1. B5  38%
2. B1  49%

biological target: T1, human αVβ6 integrin on cells; test: cell-based or functional assay; remark: another data set of the same source

In order of rising “IC50, adhesion of HT29 cells, n = 1” value:
1. B9  0.013 µg/mL
2. B10  0.022 µg/mL
3. B5  0.125 µg/mL

In order of rising “IC50, adhesion of HT29 cells, n = 2” value:
1. B9  0.013 µg/mL
2. B10  0.024 µg/mL
3. B5  0.157 µg/mL

In order of falling “IC50, adhesion of HT29 cells, n = 3” value:
1. B10  0.067 µg/mL
2. B5  0.064 µg/mL
3. B9  0.039 µg/mL

biological target: T2, α4β1 integrin on J6.77 cells; test: cell-based or functional assay; remark: another data set of the same source

In order of falling “Percent Inhibition of J6.77 adhesion to CS-1 peptide, 5 ug/ml” value:
1. B5  2%
2. B9  -2%
3. B10  -6%

biological target: T3, α5β1 integrin on K562 cells; test: cell-based or functional assay; remark: another data set of the same source

In order of falling “% Inhibition of K562 adhesion to fibronectin” value:
1. B9  6%
2. B5  -5%
3. B10  -8%

biological target: T1, human αVβ6 integrin on cells; test: cell-based or functional assay; remark: another data set of the same source

In order of falling “Percent Internalization, 1 ug/ml” value:
1. B9  31%
2. B5  27%
3. B10  17%

In order of falling “Percent Internalization, 10 ug/ml” value:
1. B9  42%
2. B10  22%
3. B5  18%

biological target: T1, human αVβ6 integrin on cells; test: FMAT, supernatant, HEK 293 cells stably overexpressing αVβ6

In order of falling “FMAT FL1XCount” value:
1. B1  1.6e+06
2. B5  79800
3. B2  16700
4. B4  10700

biological target: T4, cynomolgus αVβ6 on cells (cynomolgus); test: FACS, supernatant, HEK-293 transfected with cynomolgus αV and β6
T4 construct: whole, on cells; also called macaque αVβ6; Mac AVB6

In order of falling “% Cells Shifted” value:
1. B8  35%
2. B6  32%
3. B3  25%
4. B11  23%
5. B7  19%

In order of falling GeoMean:
1. B8  37
2. B6  35.2
3. B7  33.5
4. B11  30.2
5. B3  22.8
